Experimental findings from publication PMC7118729 are described below.

The assay addresses SARS-CoV non-structural protein 15 (Nsp15) [change] (SARS-CoV). Briefly: SEC. On the technique in general: SEC sorts molecules by how far they enter the pores of the column.

Broadly, the stoichiometry N is a count of units in the complex or per binding partner.

The substance “SARS-CoV non-structural protein 15 (Nsp15) [change] (enzyme)” came in with a stoichiometry N of 3.
